Details: Lithobates pipiens, MES 100 mM, reversible: yes, whole UniProt chain shown; for unfolding free energy / denaturant m value / denaturant midpoint (higher = more stable): 25 °C

B1: Protein P-30 wild type, P22069 (protein)
chain: QDWLTFQKKHITNTRDVDCDNIMSTNLFHCKDKNTFIYSRPEPVKAICKGIIASKNVLTTSEFYLSDCNVTSRPCKYKLKKSTNKFCVTCENQAPVHFVGVGSC
unfolding free energy (pH 2, Thermal, DSC): 8.84 kcal/mol
Tm (pH 2, Thermal, DSC): 69.5 °C
heat capacity change of unfolding (pH 2, Thermal, DSC): 1.48 kcal/mol/K
unfolding enthalpy (calorimetric) (pH 2, Thermal, DSC): 102 kcal/mol
unfolding enthalpy (van 't Hoff) (pH 2, Thermal, DSC): 105 kcal/mol
unfolding free energy (pH 2.5, Thermal, DSC): 9.54 kcal/mol
Tm (pH 2.5, Thermal, DSC): 72.6 °C
heat capacity change of unfolding (pH 2.5, Thermal, DSC): 1.31 kcal/mol/K
unfolding enthalpy (calorimetric) (pH 2.5, Thermal, DSC): 105 kcal/mol
unfolding enthalpy (van 't Hoff) (pH 2.5, Thermal, DSC): 104 kcal/mol
unfolding free energy (pH 3, Thermal, DSC): 10.8 kcal/mol
Tm (pH 3, Thermal, DSC): 76.5 °C
heat capacity change of unfolding (pH 3, Thermal, DSC): 1.43 kcal/mol/K
unfolding enthalpy (calorimetric) (pH 3, Thermal, DSC): 112 kcal/mol
unfolding enthalpy (van 't Hoff) (pH 3, Thermal, DSC): 110 kcal/mol
unfolding free energy (pH 3.5, Thermal, DSC): 12.2 kcal/mol
Tm (pH 3.5, Thermal, DSC): 81.6 °C
heat capacity change of unfolding (pH 3.5, Thermal, DSC): 1.36 kcal/mol/K
unfolding enthalpy (calorimetric) (pH 3.5, Thermal, DSC): 120 kcal/mol
unfolding enthalpy (van 't Hoff) (pH 3.5, Thermal, DSC): 118 kcal/mol
unfolding free energy (pH 4, Thermal, DSC): 13.5 kcal/mol
Tm (pH 4, Thermal, DSC): 86.8 °C
heat capacity change of unfolding (pH 4, Thermal, DSC): 1.24 kcal/mol/K
unfolding enthalpy (calorimetric) (pH 4, Thermal, DSC): 125 kcal/mol
unfolding enthalpy (van 't Hoff) (pH 4, Thermal, DSC): 127 kcal/mol
unfolding free energy (pH 5, Thermal, DSC): 14.1 kcal/mol
Tm (pH 5, Thermal, DSC): 88.3 °C
heat capacity change of unfolding (pH 5, Thermal, DSC): 1.53 kcal/mol/K
unfolding enthalpy (calorimetric) (pH 5, Thermal, DSC): 129 kcal/mol
unfolding enthalpy (van 't Hoff) (pH 5, Thermal, DSC): 132 kcal/mol
denaturant m value (pH 6, GdnHCl, CD): 3.13 kcal/mol/M
denaturant midpoint (higher = more stable) (pH 6, GdnHCl, CD): 4.5 M
unfolding free energy (pH 6, GdnHCl, CD): 14.1 kcal/mol
denaturant m value (pH 6, GdnHCl, Fluorescence): 3.08 kcal/mol/M
denaturant midpoint (higher = more stable) (pH 6, GdnHCl, Fluorescence): 4.5 M
unfolding free energy (pH 6, GdnHCl, Fluorescence): 13.9 kcal/mol
unfolding free energy (pH 6, Thermal, DSC): 14.2 kcal/mol
Tm (pH 6, Thermal, DSC): 88.7 °C
heat capacity change of unfolding (pH 6, Thermal, DSC): 1.31 kcal/mol/K
unfolding enthalpy (calorimetric) (pH 6, Thermal, DSC): 129 kcal/mol
unfolding enthalpy (van 't Hoff) (pH 6, Thermal, DSC): 128 kcal/mol
unfolding free energy (pH 7, Thermal, DSC): 13.7 kcal/mol
Tm (pH 7, Thermal, DSC): 87.8 °C
heat capacity change of unfolding (pH 7, Thermal, DSC): 1.43 kcal/mol/K
unfolding enthalpy (calorimetric) (pH 7, Thermal, DSC): 127 kcal/mol
unfolding enthalpy (van 't Hoff) (pH 7, Thermal, DSC): 123 kcal/mol
unfolding free energy (pH 8, Thermal, DSC): 13 kcal/mol
Tm (pH 8, Thermal, DSC): 85.4 °C
heat capacity change of unfolding (pH 8, Thermal, DSC): 1.39 kcal/mol/K
unfolding enthalpy (calorimetric) (pH 8, Thermal, DSC): 123 kcal/mol
unfolding enthalpy (van 't Hoff) (pH 8, Thermal, DSC): 127 kcal/mol
